# Test results taken from US20140086916A1 (Merck Sharp & Dohme, published 2014).
# Read-outs that look alike come from different tables or passages of the source.
# T1: FcγRIIA H (UniProt P12318 34-217, limits assumed)
# T1 construct: also called FcgRIIA H
# T1 sequence (looked up): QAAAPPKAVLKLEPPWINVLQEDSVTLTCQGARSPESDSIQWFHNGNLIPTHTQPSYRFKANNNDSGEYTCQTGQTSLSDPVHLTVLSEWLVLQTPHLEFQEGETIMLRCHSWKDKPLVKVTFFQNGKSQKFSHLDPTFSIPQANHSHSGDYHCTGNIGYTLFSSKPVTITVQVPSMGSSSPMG
# T2: FcγRIIb (Pichia pastoris produced) (UniProt P31994 43-217, limits assumed)
# T2 construct: also called FcgRIIB; CD32B
# T2 sequence (looked up): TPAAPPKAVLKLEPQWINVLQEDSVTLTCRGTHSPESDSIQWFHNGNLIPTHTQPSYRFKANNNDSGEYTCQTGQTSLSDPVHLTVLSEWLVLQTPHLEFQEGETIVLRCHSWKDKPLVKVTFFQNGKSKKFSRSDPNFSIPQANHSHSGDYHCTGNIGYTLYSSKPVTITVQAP
# How the values were obtained:
# [1] = molecular target: T3, FcγRIIIa-V158 (Pichia pastoris produced) (UniProt P08637 17-208, limits assumed); assay: fold change of the Table 12 affinities (reference row)
# T3 construct: also called FcγRIIIA LV; FcgRIIIA LV
# T3 sequence (P08637 17-208 F176V limits assumed): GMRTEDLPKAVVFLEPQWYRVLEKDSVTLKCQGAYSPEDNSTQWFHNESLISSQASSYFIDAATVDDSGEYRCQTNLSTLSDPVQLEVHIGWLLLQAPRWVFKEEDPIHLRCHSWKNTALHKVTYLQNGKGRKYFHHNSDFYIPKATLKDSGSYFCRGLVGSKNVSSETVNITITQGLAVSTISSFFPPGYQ
# Experimental: (§1) Fcγ receptor binding assays were carried out as described (Shields, et al. (2001) J. Biol. Chem. 276:6591-6604) with minor modifications. High protein binding 96-well plates (Corning Costar) were coated with 100 μL per well of Fcγ receptor solutions in PBS at the following concentrations: 1 μg/mL for both FcγRI (R&D Systems) and FcγRIIa (Pichia pastoris produced), 2 μg/mL for FcγRIIb (P. pastoris produced), 0.8 μg/mL for FcγRIIIa-F158, and 0.4 μg/mL for FcγRIIIa-V158 (both P. pastoris produced). All Pichia pastoris produced receptors were expressed and purified as described (Li, et al. (2006) Nature Biotechnology 24:210-215). Monomeric antibody samples added to the FcγRI plate were serially diluted in assay diluent (1×PBS, 1% BSA, and 0.05% Tween20) and 100 μL, per well was added to the plate. Antibody samples prepared for the remaining receptors require a one hour dimerization step with half molar ratio of goat anti-human IgG F(ab′)2 F(ab′)2 that is conjugated with alkaline phosphatase for detection. These dimerized F(ab′)2/antibody complexes were also serially diluted and 100 μL per well were added to the remaining receptor plates and all plates were incubated for one hour at room temperature. FcγRI bound sample antibody was detected using the same goat anti-human IgG F(ab′)2 alkaline phosphatase conjugated F(ab′)2. Sample antibody binding was quantified by measuring excitation at 340 nm and emission at 465 nm after 18 hour incubation with SuperPhos, 4-MUP Fluorescence AP Substrate Detection System (Virolabs).
# [2] = molecular target: T4, FcγRIIIa-F158 (Pichia pastoris produced) (UniProt P08637 17-208, limits assumed); assay: as above
# T4 construct: also called FcγRIIIA LF; FcgRIIIA LF
# T4 sequence (P08637 17-208 limits assumed): as the sequence (P08637 17-208 F176V limits assumed) above, with V160F counted along it
# Experimental: as §1
# FcγRIIA H = molecular target: T1, FcγRIIA H; assay: as above
# Experimental: as §1
# [3] = molecular target: T2, FcγRIIb (Pichia pastoris produced); assay: as above
# Experimental: as §1
# [4] = molecular target: T3, FcγRIIIa-V158 (Pichia pastoris produced); assay: ELISA-type plate assay, FcγR coated, antibody dimerized with AP-conjugated goat anti-human IgG F(ab')2, RFU readout
# Experimental: as §1
# [5] = molecular target: T3, FcγRIIIa-V158 (Pichia pastoris produced); assay: FcγR affinity assay 'as described in Example 7', n = 3; printed as Affinity (nM) ± STDEV
# Experimental: as §1
# [6] = molecular target: T4, FcγRIIIa-F158 (Pichia pastoris produced); assay: as above
# Experimental: as §1
# [7] = molecular target: T3, FcγRIIIa-V158 (Pichia pastoris produced); assay: ELISA-type plate assay, FcγR coated, antibody dimerized with AP-conjugated goat anti-human IgG F(ab')2, RFU readout; remark: listed apart in the source
# Experimental: as §1
# [8] = molecular target: T3, FcγRIIIa-V158 (Pichia pastoris produced); assay: as above; remark: listed apart in the source
# Experimental: as §1
# [9] = molecular target: T4, FcγRIIIa-F158 (Pichia pastoris produced); assay: as above
# Experimental: as §1
# [10] = molecular target: T2, FcγRIIb (Pichia pastoris produced); assay: as above
# Experimental: as §1
# [11] = molecular target: T3, FcγRIIIa-V158 (Pichia pastoris produced); assay: as above; remark: listed apart in the source
# Experimental: as §1
# [12] = molecular target: T3, FcγRIIIa-V158 (Pichia pastoris produced); assay: as above; remark: listed apart in the source
# Experimental: as §1
# [13] = molecular target: T3, FcγRIIIa-V158 (Pichia pastoris produced); assay: as above; remark: listed apart in the source
# Experimental: as §1
# [14] = molecular target: T2, FcγRIIb (Pichia pastoris produced); assay: fold change of the Table 12 affinities; Table 13 fold change computed from the Table 12 affinities
# Experimental: as §1, with “These dimerized F(ab′)2/antibody complexes were also serially diluted and 100 μL per well were added to the remaining receptor plates and all plates were incubated for one hour at room temperature.” left out
fold change in affinity vs 1F11 IgG1 GS5.0 [1] [fold],fold change in affinity vs 1F11 IgG1 GS5.0 [2] [fold],fold change in affinity vs 1F11 IgG1 GS5.0 (FcγRIIA H) [fold],fold change in affinity vs 1F11 IgG1 GS5.0 [3] [fold],EC50 (read off the curve) [4] [µg/mL],Kd [5] [nM],Kd [6] [nM],EC50 (read off the curve) [7] [µg/mL],EC50 (read off the curve) [8] [µg/mL],EC50 (read off the curve) [9] [µg/mL],EC50 (read off the curve) [10] [µg/mL],EC50 (read off the curve) [11] [µg/mL],EC50 (read off the curve) [12] [µg/mL],EC50 (read off the curve) [13] [µg/mL],fold change in affinity vs 1F11 IgG1 GS5.0 [14] [fold],Binder
1,1,1,1,~0.03,0.15,203,~0.03,~0.04,~0.02,~0.1,~0.03,~0.05,~0.04,–,"1F11 wildtype (parent) humanized anti-PCSK9 monoclonal IgG1 antibody (antibody, Produced in glycoengineered Pichia pastoris GFI5.0 (strain YGLY21351); also called 1F11 IgG1 GS5.0; YGLY21351) heavy: not shown light: DIQMTQSPSSLSASVGDRVTITCKASQNVGTNVVWYQQKPGKAPKALIHSASYRYSGVPSRFSGSGSGTDFTLTISSLQPEDFATYYCQQYKTYPYTFGQGTKVEIKRTVAAPSVFIFPPSDEQLKSGTASVVCLLNNFYPREAKVQWKVDNALQSGNSQESVTEQDSKDSTYSLSSTLTLSKADYEKHKVYACEVTHQGLSSPVTKSFNRGEC"
–,–,–,–,~0.2,97,2520,~0.2,~0.1,–,–,~0.1,~0.1,~0.1,3,"1F11 IgG1 F243A/V264A double mutein anti-PCSK9 antibody (antibody, sialylated N-glycans; also called 1F11 DM; YGLY23258) heavy: not shown light: DIQMTQSPSSLSASVGDRVTITCKASQNVGTNVVWYQQKPGKAPKALIHSASYRYSGVPSRFSGSGSGTDFTLTISSLQPEDFATYYCQQYKTYPYTFGQGTKVEIKRTVAAPSVFIFPPSDEQLKSGTASVVCLLNNFYPREAKVQWKVDNALQSGNSQESVTEQDSKDSTYSLSSTLTLSKADYEKHKVYACEVTHQGLSSPVTKSFNRGEC"
